Reference: article PMC2490753

Molecular target: YacG (E. coli) (UniProt P0A8H8)
Test: SPR

Sequence of UniProt P0A8H8 (P0A8H8 whole entry): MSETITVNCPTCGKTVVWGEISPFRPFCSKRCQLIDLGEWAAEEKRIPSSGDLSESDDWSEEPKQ

“GyrB subunit of E. coli DNA gyrase (from UniProt P0AES6 1-804) (natural protein)” showed a response above nonspecific control at 1 uM GyrB of 92 RU.
